Test results published in the supplement of paper PMC10567573.

B1: HESX1 (parent)
chain: ENKPSTCSFSIERILGLDQKKDCV

Variants of: B1
Assay: protein stability index of a GFP-peptide fusion (GPS, HEK-293T) (PSI 1-6); higher = more stable
Details: c terminus: a fixed tail appended
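Also: lentivirally expressed fusions sorted by FACS into six bins by GFP to DsRed ratio, PSI derived from sequencing read proportions per bin multiplied by bin number.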

Q: Which protein stability index does the source give for ENKPSTCSFSIERILGDDQKKDCV [L17D] here?
A: 4.4

Q: For ENKPSTCSFSIERILGHDQKKDCV [L17H], which protein stability index is on record?
A: 3.53

Q: Which protein stability index does the source give for ENKPSTCSFSIERILGADQKKDCV [L17A] here?
A: 4

Q: Which protein stability index does the source give for ENKPSTCSFSIERILGPDQKKDCV [L17P] here?
A: 4.69

Q: With ENKPSTCSFSIERILGKDQKKDCV [L17K] as the variant, how does the protein stability index read?
A: 4.04

Q: With ENKPSTCSFSIERILGVDQKKDCV [L17V] as the variant, how does the protein stability index read?
A: 4.2

Q: For ENKPSTCSFSIERILGSDQKKDCV [L17S], which protein stability index is on record?
A: 3.86

Q: Which protein stability index does the source give for ENKPSTCSFSIERILGWDQKKDCV [L17W] here?
A: 2.82

Q: For ENKPSTCSFSIERILGFDQKKDCV [L17F], which protein stability index is on record?
A: 2.91

Q: With ENKPSTCSFSIERILGIDQKKDCV [L17I] as the variant, how does the protein stability index read?
A: 3.31

Q: Which protein stability index does the source give for ENKPSTCSFSIERILGNDQKKDCV [L17N] here?
A: 4.42

Q: Which protein stability index does the source give for ENKPSTCSFSIERILGQDQKKDCV [L17Q] here?
A: 3.59

Q: With ENKPSTCSFSIERILGCDQKKDCV [L17C] as the variant, how does the protein stability index read?
A: 3.22

Q: For ENKPSTCSFSIERILGYDQKKDCV [L17Y], which protein stability index is on record?
A: 2.56

Q: Which protein stability index does the source give for ENKPSTCSFSIERILGGDQKKDCV [L17G] here?
A: 3.83

Q: For ENKPSTCSFSIERILGTDQKKDCV [L17T], which protein stability index is on record?
A: 3.78

Q: For ENKPSTCSFSIERILGMDQKKDCV [L17M], which protein stability index is on record?
A: 2.11

Q: Which protein stability index does the source give for ENKPSTCSFSIERILGEDQKKDCV [L17E] here?
A: 4.25

Q: Which protein stability index does the source give for ENKPSTCSFSIERILGLDCKKDCV [Q19C] here?
A: 2.67

Q: Which protein stability index does the source give for ENKPSTCSFSIERILGLDAKKDCV [Q19A] here?
A: 2.33

Q: For ENKPSTCSFSIERILGLDWKKDCV [Q19W], which protein stability index is on record?
A: 1.35

Q: For ENKPSTCSFSIERILGLDDKKDCV [Q19D], which protein stability index is on record?
A: 3.34

Q: With ENKPSTCSFSIERILGLDTKKDCV [Q19T] as the variant, how does the protein stability index read?
A: 2.88

Q: With ENKPSTCSFSIERILGLDNKKDCV [Q19N] as the variant, how does the protein stability index read?
A: 2.64

Q: Which protein stability index does the source give for ENKPSTCSFSIERILGLDSKKDCV [Q19S] here?
A: 2.79

Q: With ENKPSTCSFSIERILGLDRKKDCV [Q19R] as the variant, how does the protein stability index read?
A: 3.2

Q: With ENKPSTCSFSIERILGLDFKKDCV [Q19F] as the variant, how does the protein stability index read?
A: 2.12

Q: With ENKPSTCSFSIERILGLDKKKDCV [Q19K] as the variant, how does the protein stability index read?
A: 2.94

Q: For ENKPSTCSFSIERILGLDYKKDCV [Q19Y], which protein stability index is on record?
A: 1.97

Q: With ENKPSTCSFSIERILGLDIKKDCV [Q19I] as the variant, how does the protein stability index read?
A: 2.39

Q: With ENKPSTCSFSIERILGLDLKKDCV [Q19L] as the variant, how does the protein stability index read?
A: 2.62

Q: With ENKPSTCSFSIERILGLDPKKDCV [Q19P] as the variant, how does the protein stability index read?
A: 3.14

Q: For ENKPSTCSFSIERILGLDMKKDCV [Q19M], which protein stability index is on record?
A: 2.6

Q: With ENKPSTCSFSIERILGLDEKKDCV [Q19E] as the variant, how does the protein stability index read?
A: 3.23

Q: Which protein stability index does the source give for ENKPSTCSFSIERILGLDGKKDCV [Q19G] here?
A: 3.06

Q: Which protein stability index does the source give for ENKPSTCSFSIERILGLDVKKDCV [Q19V] here?
A: 2.71

Q: For ENKPSTCSFSIERILGLDHKKDCV [Q19H], which protein stability index is on record?
A: 2.47

Q: With ENKPSTCSFSIERILGLDQKKDDV [C23D] as the variant, how does the protein stability index read?
A: 4.38

Q: For ENKPSTCSFSIERILGLDQKKDAV [C23A], which protein stability index is on record?
A: 3.64

Q: With ENKPSTCSFSIERILGLDQKKDFV [C23F] as the variant, how does the protein stability index read?
A: 2.62

Q: With ENKPSTCSFSIERILGLDQKKDEV [C23E] as the variant, how does the protein stability index read?
A: 3.6

Q: With ENKPSTCSFSIERPLGLDQKKDCV [I14P] as the variant, how does the protein stability index read?
A: 4.34

Q: Which protein stability index does the source give for ENKPSTCSFSIERQLGLDQKKDCV [I14Q] here?
A: 4.12

Q: Which protein stability index does the source give for ENKPSTCSFSIERSLGLDQKKDCV [I14S] here?
A: 4.52

Q: For ENKPSTCSFSIERALGLDQKKDCV [I14A], which protein stability index is on record?
A: 4.54

Q: With ENKPSTCSFSIERYLGLDQKKDCV [I14Y] as the variant, how does the protein stability index read?
A: 3.75

Q: Which protein stability index does the source give for ENKPSTCSFSIERWLGLDQKKDCV [I14W] here?
A: 3.38

Q: Which protein stability index does the source give for ENKPSTCSFSIERHLGLDQKKDCV [I14H] here?
A: 4.1

Q: For ENKPSTCSFSIERLLGLDQKKDCV [I14L], which protein stability index is on record?
A: 3.11

Q: Which protein stability index does the source give for ENKPSTCSFSIERKLGLDQKKDCV [I14K] here?
A: 4.31

Q: With ENKPSTCSFSIERGLGLDQKKDCV [I14G] as the variant, how does the protein stability index read?
A: 4.09

Q: With ENKPSTCSFSIERVLGLDQKKDCV [I14V] as the variant, how does the protein stability index read?
A: 3.39

Q: Which protein stability index does the source give for ENKPSTCSFSIERCLGLDQKKDCV [I14C] here?
A: 3.97

Q: For ENKPSTCSFSIERELGLDQKKDCV [I14E], which protein stability index is on record?
A: 4.88

Q: Which protein stability index does the source give for ENKPSTCSFSIERTLGLDQKKDCV [I14T] here?
A: 4.16

Q: With ENKPSTCSFSIERNLGLDQKKDCV [I14N] as the variant, how does the protein stability index read?
A: 3.83

Q: With ENKPSTCSFSIERDLGLDQKKDCV [I14D] as the variant, how does the protein stability index read?
A: 4.11

Q: For ENKPSTCSFSIERFLGLDQKKDCV [I14F], which protein stability index is on record?
A: 3.8

Q: For ENKPSTCSFSIERRLGLDQKKDCV [I14R], which protein stability index is on record?
A: 3.97

Q: With ENKPSTCSFSIERMLGLDQKKDCV [I14M] as the variant, how does the protein stability index read?
A: 3.15

Q: With ENKPSTCSFSIERILGLDQKKMCV [D22M] as the variant, how does the protein stability index read?
A: 1.77

Q: For ENKPSTCSFSIERILGLDQKKNCV [D22N], which protein stability index is on record?
A: 2.9

Q: For ENKPSTCSFSIERILGLDQKKACV [D22A], which protein stability index is on record?
A: 2.51

Q: Which protein stability index does the source give for ENKPSTCSFSIERILGLDQKKRCV [D22R] here?
A: 3.08

Q: For ENKPSTCSFSIERILGLDQKKSCV [D22S], which protein stability index is on record?
A: 3.41

Q: With ENKPSTCSFSIERILGLDQKKICV [D22I] as the variant, how does the protein stability index read?
A: 1.94

Q: For ENKPSTCSFSIERILGLDQKKWCV [D22W], which protein stability index is on record?
A: 1.46

Q: Which protein stability index does the source give for ENKPSTCSFSIERILGLDQKKKCV [D22K] here?
A: 2.73

Q: Which protein stability index does the source give for ENKPSTCSFSIERILGLDQKKCCV [D22C] here?
A: 2.12

Q: For ENKPSTCSFSIERILGLDQKKFCV [D22F], which protein stability index is on record?
A: 2.1

Q: For ENKPSTCSFSIERILGLDQKKYCV [D22Y], which protein stability index is on record?
A: 2.14

Q: With ENKPSTCSFSIERILGLDQKKPCV [D22P] as the variant, how does the protein stability index read?
A: 3.08

Q: Which protein stability index does the source give for ENKPSTCSFSIERILGLDQKKQCV [D22Q] here?
A: 2.73

Q: With ENKPSTCSFSIERILGLDQKKGCV [D22G] as the variant, how does the protein stability index read?
A: 2.78

Q: For ENKPSTCSFSIERILGLDQKKHCV [D22H], which protein stability index is on record?
A: 2.04

Q: Which protein stability index does the source give for ENKPSTCSFSIERILGLDQKKTCV [D22T] here?
A: 2.02

Q: For ENKPSTCSFSIERILGLDQKKVCV [D22V], which protein stability index is on record?
A: 1.56

Q: With ENKPSTCSFSIERILGLDQKKLCV [D22L] as the variant, how does the protein stability index read?
A: 1.5

Q: For ENKPSTCSFSIERILGLDQKKECV [D22E], which protein stability index is on record?
A: 3.24

Q: For ENKPSTCSFSIERILGLVQKKDCV [D18V], which protein stability index is on record?
A: 1.8

Q: For ENKPSTCSFSIERILGLQQKKDCV [D18Q], which protein stability index is on record?
A: 2.89

Q: With ENKPSTCSFSIERILGLMQKKDCV [D18M] as the variant, how does the protein stability index read?
A: 2.23

Q: For ENKPSTCSFSIERILGLFQKKDCV [D18F], which protein stability index is on record?
A: 1.85

Q: For ENKPSTCSFSIERILGLGQKKDCV [D18G], which protein stability index is on record?
A: 2.55

Q: With ENKPSTCSFSIERILGLHQKKDCV [D18H] as the variant, how does the protein stability index read?
A: 3

Q: Which protein stability index does the source give for ENKPSTCSFSIERILGLAQKKDCV [D18A] here?
A: 2.94

Q: For ENKPSTCSFSIERILGLWQKKDCV [D18W], which protein stability index is on record?
A: 2.32

Q: For ENKPSTCSFSIERILGLTQKKDCV [D18T], which protein stability index is on record?
A: 2.77

Q: For ENKPSTCSFSIERILGLLQKKDCV [D18L], which protein stability index is on record?
A: 2.12

Q: With ENKPSTCSFSIERILGLYQKKDCV [D18Y] as the variant, how does the protein stability index read?
A: 2.14

Q: With ENKPSTCSFSIERILGLIQKKDCV [D18I] as the variant, how does the protein stability index read?
A: 1.74

Q: Which protein stability index does the source give for ENKPSTCSFSIERILGLSQKKDCV [D18S] here?
A: 3.13

Q: Which protein stability index does the source give for ENKPSTCSFSIERILGLPQKKDCV [D18P] here?
A: 2.71

Q: With ENKPSTCSFSIERILGLKQKKDCV [D18K] as the variant, how does the protein stability index read?
A: 2.79
